These results are taken from US20250152743A1, “SYNPOPTOSIS CIRCUITS FOR PROGRAMMABLE CELL DEATH CONTROL” (California Institute of Technology, priority 2023, published 2025).

Read-outs that look alike come from different tables or passages of the source.

The test relates to HEK cells. Nature of the test: Transient DNA transfection of HEK cells, Annexin/Sytox staining, flow cytometry. The class given is cell-based, human. The protocol:
HEK cells were transiently co-transfected with DNA encoding the circuits, often along with Cherry, a fluorescent protein marker, and cells were analyzed by flow cytometry 16 to 24 hours later. To quantify cell death, the cells were strained with Annexin, Sytox, or both. Annexin stains apoptotic cells by binding to phosphatidylserine exposed on the outer leaflet, and pyroptotic cells by binding to phosphatidylserine in the inner leaflet after membrane permeabilization. In contrast, Sytox, a membrane-impermeable dye, primarily stains pyroptotic cells. Therefore, apoptotic cells are typically Annexin-high and Sytox-low, while pyroptotic cells are Annexin-high and Sytox-high (FIG. 7B). For simplicity, in experiments involving only a single death mode, a single relevant dye was often used. To focus on cells influenced by the circuits, the fraction of Annexin- or Sytox-positive cells was calculated after gating on the fluorescent co-transfection marker (FIG. 7C).
On the day before transfection, HEK cells were seeded at a density of 0.3-0.6 million cells per well on a 12-well plate, 0.1-0.3 million cells per well on a 24-well plate, or 15,000-50,000 cells per well on a 96-well plate. The cells were allowed to attach to the plate overnight, for at least 8 hours. On the day of transfection, we treated the cells with purified DNA plasmids encoding circuit components. In addition to plasmids encoding circuit components, we often included a plasmid encoding a fluorescent co-transfection marker, at roughly 50 ng DNA per well on a 24-well plate. Given the different number of molecular components in each synthetic circuit and their various relative ratios, the total amount of DNA ranged from 50 to 1 μg per well on a 24-well plate, and was scaled by […] when other 12-well or 96-well plates were used, respectively. On the same plate, we often equalized the total amount of DNA across all transfected wells, using a filler plasmid encoding the neomycin resistance gene. To transfect cells with plasmid DNA, we used three types of transfection reagents—Lipofectamine 2000 (Thermo Fisher), Lipofectamine 3000 (Thermo Fisher), and FuGENE HD (Promega), according to manufacturers' instructions. Briefly, for a typical transfection experiment on a 24-well plate, we mixed plasmids and the transfection reagent, around 200 ng of DNA per 1 μl of Lipofectamine 2000, in 25 μl of Opti-MEM reduced serum medium (Thermo Fisher), incubated the mixture for 5-10 min at room temperature, and then added another 25 μl of Opti-MEM before transferring the mixture dropwise to culture wells. We also performed some transfection experiments using the Lipofectamine 3000 kit (Thermo Fisher), at a ratio of 2,000 ng of DNA, 2 ul of 4 ul of P3000, and 3 μl of Lipofectamine 3000. We similarly diluted the mixture in Opti-MEM before adding it to cells. For transfection with FuGENE, we used a ratio of 4 μl FuGENE:1 μg of DNA, and incubated the DNA-FuGENE mixture at room temperature for 5 min before transfection. To enable protein expression from plasmids with a doxycycline-inducible promoter, doxycycline was added to the cell culture at a final concentration of 100 ng/mL. In experiments involving Q-VD-OPh, the compound was added to the cell culture at a final concentration of 30 μM, immediately after the cells received the transfection mixture. To transfect cells with in vitro transcribed mRNA, Lipofectamine MessengerMax (Thermo Fisher) was used. Briefly, for transfection of one well in a 96-well plate, 0.1 μL of Lipofectamine MessengerMAX was diluted in 1.25 μL Opti-MEM and incubated for 10 minutes at room temperature. mRNA was then added to Opti-MEM to the appropriate conditions at the following amounts: 12.5 ng of fluorescent co-transfection marker, 56.25 ng of protease, and 56.25 ng of engineered executioner. Diluted mRNA was then added to diluted MessengerMAX reagent and incubated for 5 minutes at room temperature before addition to Jurkat or THP-1 cells in RPMI media. […]
On the technique in general: Flow cytometry measures light scatter and fluorescence of single cells or particles in a stream.

Setting [1] is: co-transfected with wildtype GSDME, TEVP and TEVP-activatable caspase-3.

B1: FIG. 1D, third module: GSDMA N-terminal domain fused to TEVP-removable degron; SEQ ID NO: 18 (protein)
chain: MGSPVFEDVTRALVRELNPRGDLTPLDSLIDFKHFRPFCLVLRKRKSTLFWGARYVRTDYTLLDLLEPGSSPSDLTDSGNFSFKNMLDVQVQGLVEVPKTVKVKGTAGLSQSSTLEVQTLSVAPSALENLKKERKLSADHSFLNEMRYHEKNLYVVMEAVEAKQEVTVEQTGNANAIFSLPSLALLGLQGSLNNNKAVTIPKGCVLAYRVRLLRVFLFNLWDIPYICNDSMQTFPKIRRVPCSAFISPTQMISEEPEEEKLIGEGGSGLENLYFQSGSGSISLIAALAVDYVIGMENAMPWNLPADLAWFKRNTLNKPVIMGRHTWESIGRPLPGRKNIILSSQPSTDDRVTWVKSVDEAIAACGDVPEIMVIGGGRVIEQFLPKAQKLYLTHIDAEVEGDTHFPDYEPDDWESVFSEFHDADAQNSHSYCFEILERR
In the case of B1, where the note is “with TEVP / cognate protease”, the “pyroptosis, Sytox staining” value is listed as “removal of the degron by TEVP also induced pyroptosis”.

B2: tobacco vein mottling virus protease (protein)
chain: MGSSKALLKGVRDFNPISACVCLLENSSDGHSERLFGIGFGPYIIANQHLFRRNNGELTIKTMHGEFKVKNSTQLQMKPVEGRDIIVIKMAKDFPPFPQKLKFRQPTIKDRVCMVSTNFQQKSVSSLVSESSHIVHKEDTSFWQHWITTKDGQCGSPLVSIIDGNILGIHSLTHTTNGSNYFVEFPEKFVATYLDAADGWCKNWKFNADKISWGSFTLVEDAPEDDFMAKKTVAAIMDS
notes: viral input protease
With B2, the “activation of cognate engineered GSDMs containing the cleavage sites” value (tev, tvmv and hcv sites) is “orthogonally activated their cognate engineered GSDMs”.

B3: silencer: leucine zipper-fused GSDMA C-terminal domain; SEQ ID NO: 43 (protein)
chain: MGSEQLEKKLQALEKKLAQLEWKNQALEKKLAQGGSGSSMHEDFKTLKEEVQRETQEVEKLSPVGRSSLLTSLSHLLGKKKELQDLEQKLEGALDKGQKVTLEALPKDVLLSKDAMDAILYFLGALTELTEEQLKILVKSLEKKILPVQLKLVESTLEQNFLQDKEGVFPLQPDLLSSLGEEELTLTEALVGLSGLEVQRSGPQYAWDPDTRHNLCALYAGLSLLHLLSRKSNALTYCALS
In the case of B3, the “inhibition of pyroptosis induced by wildtype GSDMA N-terminal domain” value is reported as “did not inhibit pyroptosis” and the “inhibition of pyroptosis induced by zipper-attached GSDMA N-terminal domain (GSDMA N-Z)” value is listed as “markedly suppressed pyroptosis”. For the same molecule, the “inhibition of pyroptosis induced by zipper-attached GSDMA N-terminal domain (GSDMA N-Z)” value (listed as GSDMA Z-C) is given as “potently inhibited an engineered active executioner”.

B4: I217N: GSDME N-terminal domain mutant I217N; SEQ ID NO: 22 (protein)
chain: MGFAKATRNFLREVDADGDLIAVSNLNDSDKLQLLSLVTKKKRFWCWQRPKYQFLSLTLGDVLIEDQFPSPVVVESDFVKYEGKFANHVSGTLETALGKVKLNLGGSSRVESQSSFGTLRKQEVDLQQLIRDSAERTINLRNPVLQQVLEGRNEVLCVLTQKITTMQKCVISEHMQVEEKCGGIVGIQTKTVQVSATEDGNVTKDSNVVLEIPAATTNAYGVIELYVKLDGQFEFCLLRGKQGGFENKKRIDSVYLDPLVFREFAFIDMPD
For the molecule B4, the “inhibition of wildtype GSDME N-induced pyroptosis” value is reported as “capable of inhibiting the wildtype counterpart” and the “pyroptotic activity of GSDME N-terminal domain mutant” value is “defective in inducing pyroptosis”. Under setting [1], the “apoptosis, Annexin levels” value is “permitting caspase-3-induced apoptosis, as read out by high Annexin levels” and the “pyroptosis, Sytox uptake” value is “suppressed pyroptosis, as evidenced by reduced Sytox uptake”. Besides, the “pyroptosis, Sytox uptake” value (co-transfected with wildtype GSDME, TEVP and TEVP-activatable caspase-3, listed as GSDME inhibitor) is “pyroptosis could be attenuated to various degrees”. Besides, the “inhibition of wildtype GSDME N-induced pyroptosis” value (listed as GSDME N(mut)) is “inhibited wildtype GSDME N-induced pyroptosis”.
